Reference: the nanobody polyreactivity screen of Harvey et al. (2022)

Assay: yeast display, Sf9 membrane polyspecificity reagent, FACS + sequencing; frameworks hold sequencing errors
Outline: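 Genes from sorted yeast were amplified by colony PCR, read by MiSeq 2 × 250 sequencing and filtered on CDR length. These cells carried a synthetic nanobody library in Saccharomyces cerevisiae BJ5465 and were sorted by FACS into low and high (top ~1%) gates on anti-HA and streptavidin fluorescence. Polyreactivity is labelled according to the gate of origin.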

**Q.** With “QVQIVESGGGLVQAGGSLRLSCAASGTTFDKYAMGWYRQAPGKERELVAAITTNGGNTYADSVKGRFTISRDNAKNTVYLQMNSLKPEDTAVYYCAADGPGGKGLYYYWGQGTQVTVSS” as the sequence, how does the “polyreactivity (PSR sort gate)” value read?
**A.** high polyreactivity

**Q.** Which “polyreactivity (PSR sort gate)” value does the source give for “QVQLVESGGGLVQAGGSLRLSCAASGNILRGYAMGWYRQAPGKERELVAAINRGGGSTYYADSVKGRFTISRDYAKNTVYFQMNSLKPEDTAVYYCAARYPHRGYTFDYWGQGTQVTVSS” here?
**A.** low polyreactivity

**Q.** With “QVQLVESGGSLVQAGGSLRLICAASGITFWPYAMGWYRPAPGKERELVAAINSGGDTYYADSVKGRFTISRDNAKNSVYLQMNILKPEDTAVYYCAKGRDWADEEGYEYWGQGTQVTVSS” as the sequence, how does the “polyreactivity (PSR sort gate)” value read?
**A.** low polyreactivity

**Q.** With “QVQLVESGGGLVQAGGSLRLSCAASGITFYYYAMGWYRPAPGKERELVADITGTGSRTYYADSVKGRFTISRDNAKNTVYLQMNSLKPEDTAVYYCAATKRFPWFVYGEGDSWGQGTQVTVSS” as the sequence, how does the “polyreactivity (PSR sort gate)” value read?
**A.** high polyreactivity

**Q.** For “QDQLVESGGGLVQAGGSLRLSCAASGSTLFIYARGWYRQAPGKEREFVAGISYSGGSTYYADSVKGRFTISRDNAKNTVYLQMNSLKPEDTAVYYCAAATVYLSWYYWGQGTQVTVSS”, which “polyreactivity (PSR sort gate)” value is on record?
**A.** high polyreactivity

**Q.** For “QVQLVESGGGLVQAGGSLRLRCAASGSTFSSYAMGWYRQAPGKERELVAAISSRGGRTYYADSVKARFTISRDNAKNTVYLQMNRLIPEDTAVYYCAADWGVRDEYYYWGQGTQVSVSS”, which “polyreactivity (PSR sort gate)” value is on record?
**A.** high polyreactivity

**Q.** For “QVQLVESGGGLVQAGGSLRLSCAASGSTFYGYAMGWNRQAPGKERELVADIDSIAGSTYYADSVKGRFTISRDNAKNTVYLQMNSLKPEDTAVYYCAARRFDTALVLYDYWGQGTQVTVSS”, which “polyreactivity (PSR sort gate)” value is on record?
**A.** low polyreactivity

**Q.** For “QVQLVESGGGLVQAGGTLRLSCAASGYTFVVYAMGWYRQAPGKERELVASISRSGGSTYYADSVKGRFTISRDNAKNTVYLQMNSLKPEDTAVYYCAADVWRVQHRGYNYWGQGTQVTVSS”, which “polyreactivity (PSR sort gate)” value is on record?
**A.** high polyreactivity

**Q.** With “QVQLVESGGGLVQAGGSLRLSCAASGFTFVKYAMGWYRQAPGKERELVAVISRRGGSTYYADSVKGRFTISRDNAKNTVYLQMNSLKPEDTAVYYFAAKVALPRTQEWEYGYWGQGTQVTVSS” as the sequence, how does the “polyreactivity (PSR sort gate)” value read?
**A.** high polyreactivity

**Q.** Which “polyreactivity (PSR sort gate)” value does the source give for “QVQLVESGGGLVQAGGSLRLSCAASGFTFRDYAMGWYRQAPGKERELVAAITRRGGNTYYADSVKGRFTISRDNAKNTVYLQMNSLKPEDTAVYYCAARALSGHYDYWGQGTQVTVSS” here?
**A.** high polyreactivity

**Q.** With “QVQLVESGGGLVHAGGSLRISCAPSGLTFLYNAMGWYRQAPGKERELVAAISQSAGSTYYADSVKGRFTISRDNAKNTVYLQMNSLKPEDTAVYYCAAEWDSPDLVIYDYWGQGTQVTVSS” as the sequence, how does the “polyreactivity (PSR sort gate)” value read?
**A.** low polyreactivity

**Q.** For “QFQLVESVGGLVQAGGSLRLTCAASGRIFLNYDMGWYRQEPGKDRELVAAITTGGSTYADSVKGRFTISRDNAKNTVYLQMNSLKAEDTAVYYCANRDRNKRDNWGQGTQVTGSS”, which “polyreactivity (PSR sort gate)” value is on record?
**A.** low polyreactivity

**Q.** For “QVQLVESGGGLVQAGGSLRLSCAASGFIFYYNTMGWYRQAPGKERELVASITWSGDTTYYADSVKGRFTISRDNAKNTVYLQMNSLKPEDTAVYYCAAVHYYTYRRYDYWGQGTQVTVSS”, which “polyreactivity (PSR sort gate)” value is on record?
**A.** low polyreactivity

**Q.** Which “polyreactivity (PSR sort gate)” value does the source give for “QVQLVESGGGLVQAGGSLRLSCAASGRIFKGYSMGGYRQAPGTETELVASIRTGGTTNYADSVKGRFTISRDNAKNTVYLQMNSLKPEDTAVYYCNRGYYSYYGRYYYWGQGTQVTVSS” here?
**A.** high polyreactivity

**Q.** With “QVQLVESGGGLVQAGGILRLSCAASGSIFPFYAMGWYRQAPGKERELVATISWSGGRTYYADSVKGRFTISRDNANNTVYFQMNSLKPEVTAVYYCAAQSYDYWYDYDYWGQGTQVTVSS” as the sequence, how does the “polyreactivity (PSR sort gate)” value read?
**A.** high polyreactivity

**Q.** Which “polyreactivity (PSR sort gate)” value does the source give for “QVQLVESGGCLVQAGGSLRLSCAASGSTFGVNAMGWYRKAPGKERELVADISVRTDSTYYADSVKGRFTISRDNAKNTVYLQMNSLKAEDTAVYDCNAGLVIEYDYWGQGTQVSVSS” here?
**A.** low polyreactivity

**Q.** Which “polyreactivity (PSR sort gate)” value does the source give for “QVQLVESGGGLVQAGGSLRFSCAASGRICVIYAIGWYRQAPGKERELVAVINDDGSTNYADSVKGRFTISRDNAKNTVYLQMNSLKPEDTAVYYCATDYVRHAGWRRYDYWGQGTQVTVSS” here?
**A.** low polyreactivity

**Q.** For “QVKLVESGGGLVQAGGSLRLTCAASGRIFEDYVMGWYIKAPGKERELVAGISGSGGITYYADSVKGRFTISRDNAKNTVYLQMNSLKPEDTAVYYCATAAASHKYGYWGQGTQVTVSS”, which “polyreactivity (PSR sort gate)” value is on record?
**A.** low polyreactivity

**Q.** With “QVHLVESGGGLVQAGGSRRLSCAASGRTVARPAMGWYRQAPGKERELVATITIGGRTYYADSVKGRFTISRDNAKNTVYLQMNSLKPEDTAVYYCAKRISGYRGDYWGQGTQVTVSS” as the sequence, how does the “polyreactivity (PSR sort gate)” value read?
**A.** high polyreactivity

**Q.** With “QVQLVESGGVLVQARVSLRLSCAASGLTIYYYAMGWYRQAPGQERELVAAITWRGGSTYYADSVKGRFTISRDNEKNTVYLQMISLKPEVTAVYYCAADPGPYGYYYWGLGTQVTVSS” as the sequence, how does the “polyreactivity (PSR sort gate)” value read?
**A.** low polyreactivity

**Q.** With “QVQLVESGGGLVQAGGSLRLSCAASGFTFGYYAMGWYRQAPGKERELVAAISWSGSSTYYSDSVKGRFTISRDNAKNTVYLQMNSLKPEATAVYYCAAELGDAYYYWGQGTQVTVSS” as the sequence, how does the “polyreactivity (PSR sort gate)” value read?
**A.** high polyreactivity

**Q.** With “QVQLVESGGGLVQAGGSLRLSCAASGSIFSWYAMGWYRQAPGKERELVATITWRGGSTYYADSVKGRFTISRDNAKNTVYLQMNSLKPEDTAVYYCAARVPDPYTSYRYPPYYYWGQGTQVTVSS” as the sequence, how does the “polyreactivity (PSR sort gate)” value read?
**A.** low polyreactivity

**Q.** For “QLQLEESLVGLVQAGGSHPLSCAATGITFFTYTIGWYRQAPGKERELVARIRWDGGSTYYADSVKGRFTISRDNAKNTVYLQMNSLKPEDTAVYYCAADYPYSTYDYWGQGTQVTVSS”, which “polyreactivity (PSR sort gate)” value is on record?
**A.** low polyreactivity

**Q.** With “QVQLVESGGGLVQAGGSLRLSCAASGSIFEWYAMGWYRQAPGKERELVADISSVGSTYYADSVKGRFTISRDNAKNTVYLQMNSLKPEDTAVYYCNTTYIIWYDSWGQGTQVTVSS” as the sequence, how does the “polyreactivity (PSR sort gate)” value read?
**A.** low polyreactivity

**Q.** Which “polyreactivity (PSR sort gate)” value does the source give for “QVQLVESGGGLVQAGGSLRLSCAASGFTFAYYAMGWYRQAPGKERELVAAITSRGGSTYYADSVKGRFTISRDNAKNTVYLQMNSLKPEDTAVYYCATKRVLTGYDSWGQGTQVTVSS” here?
**A.** high polyreactivity

**Q.** With “QVQLVESGGGLVQAGGSLRLSCAASISSINAMGWYRQAPGKERELVAAIRWSGSSTYYADSVKGRFTISRDNAKNTVYLQMNSLKPEDTAVYYCAARYVRVGYDYWGQGTQVTVSS” as the sequence, how does the “polyreactivity (PSR sort gate)” value read?
**A.** high polyreactivity

**Q.** With “QVQLVESGGGLVQAGGSLRLSCAASGSIFDRYALGWYRQAPGKERELVAAISTGGSTNYADSVKGRFTISRDNAKNTVYLQMNSLKPEDTAVYYCAAASPYHEYDYWGQGTQVTVSS” as the sequence, how does the “polyreactivity (PSR sort gate)” value read?
**A.** low polyreactivity

**Q.** With “QVQLVESGGGLVQAGGSLRLSCAASGITFVRNAMGWYRQAPGKEREFVAAISGSGVSTYADSVKGRFTISRDNAKNTVDEQMISLKPEDTAVYYCARDFPWSYAWYDYWGQGTLVTVSS” as the sequence, how does the “polyreactivity (PSR sort gate)” value read?
**A.** low polyreactivity

**Q.** With “QVQLVESGGGLVQAGGSLRLSCAASGLNFWLNAMGWYRQAPGKERELVAAISRGGSTNYADSVKGRFTNSRDNAKNTVYLQMNSLKPEDTAVYYCAAGSRRAACYDYSYPYGYWGQGSQVTVSS” as the sequence, how does the “polyreactivity (PSR sort gate)” value read?
**A.** high polyreactivity

**Q.** For “QVQLVESGGGLVQAGGSLRLSCAASGITFKYYVMGWYRQAPGKERELVAAISYDGGSTYYADSVKGRFTISRDNAKNTVYLQMNSLKPEDTAVYYCAAPVWIDGDESGYEYDYWGQGTQVTVSS”, which “polyreactivity (PSR sort gate)” value is on record?
**A.** low polyreactivity

**Q.** Which “polyreactivity (PSR sort gate)” value does the source give for “QVHLGESGARIDQAGGSLRLSCAASGRIFKYNAMGLYRQAPGKEREWVAAISSGGSTNYADTEKGRFTISRDNAKNTVYLQMNSLKPEDTAVYYCAADGTRVSSFHYLVWLGYWGQGTQVNVSS” here?
**A.** low polyreactivity

**Q.** With “QVQLVESGGGLVQAGGSLRLSCAASGRIFDVYAMGWYRQAPGKERELVAAITWSGGRTYYADSVKGRFTISRDNAKNTVYLQLNSLKPEDTAVYYCAAEKPYVRGYLWTYDYWGQGTQVTVSS” as the sequence, how does the “polyreactivity (PSR sort gate)” value read?
**A.** low polyreactivity
